Earlier results on one substance are cited in article PMC4860049.

This data set concerns the target CHMP5 (Homo sapiens) (UniProt Q9NZZ3).
Chain of UniProt Q9NZZ3 (Q9NZZ3 whole entry): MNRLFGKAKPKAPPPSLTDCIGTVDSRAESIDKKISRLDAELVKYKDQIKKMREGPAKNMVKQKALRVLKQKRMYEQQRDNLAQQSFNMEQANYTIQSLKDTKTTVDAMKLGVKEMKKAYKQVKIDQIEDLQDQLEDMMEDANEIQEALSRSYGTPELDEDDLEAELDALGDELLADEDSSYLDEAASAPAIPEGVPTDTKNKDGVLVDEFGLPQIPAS

Take LIP5 MIT2 (from UniProt Q9NP79): the Kd is 3 nM.
